Data published in PMC11535040, “Requirement of Nek2a and cyclin A2 for Wapl-dependent removal of cohesin from prophase chromatin” (The EMBO Journal, 2024).

Target: T1, Flag-tagged Pds5a (human, UniProt Q29RF7 1-1337)
T1 construct: Pds5a, human; insert by PCR on human cDNA; also called Flag-Pds5; source: Hek293T, transfected (alone or with eGFP-Nek2aΔMR and eGFP-Δ86-cyclin A2), taxol-arrested
T1 sequence (looked up): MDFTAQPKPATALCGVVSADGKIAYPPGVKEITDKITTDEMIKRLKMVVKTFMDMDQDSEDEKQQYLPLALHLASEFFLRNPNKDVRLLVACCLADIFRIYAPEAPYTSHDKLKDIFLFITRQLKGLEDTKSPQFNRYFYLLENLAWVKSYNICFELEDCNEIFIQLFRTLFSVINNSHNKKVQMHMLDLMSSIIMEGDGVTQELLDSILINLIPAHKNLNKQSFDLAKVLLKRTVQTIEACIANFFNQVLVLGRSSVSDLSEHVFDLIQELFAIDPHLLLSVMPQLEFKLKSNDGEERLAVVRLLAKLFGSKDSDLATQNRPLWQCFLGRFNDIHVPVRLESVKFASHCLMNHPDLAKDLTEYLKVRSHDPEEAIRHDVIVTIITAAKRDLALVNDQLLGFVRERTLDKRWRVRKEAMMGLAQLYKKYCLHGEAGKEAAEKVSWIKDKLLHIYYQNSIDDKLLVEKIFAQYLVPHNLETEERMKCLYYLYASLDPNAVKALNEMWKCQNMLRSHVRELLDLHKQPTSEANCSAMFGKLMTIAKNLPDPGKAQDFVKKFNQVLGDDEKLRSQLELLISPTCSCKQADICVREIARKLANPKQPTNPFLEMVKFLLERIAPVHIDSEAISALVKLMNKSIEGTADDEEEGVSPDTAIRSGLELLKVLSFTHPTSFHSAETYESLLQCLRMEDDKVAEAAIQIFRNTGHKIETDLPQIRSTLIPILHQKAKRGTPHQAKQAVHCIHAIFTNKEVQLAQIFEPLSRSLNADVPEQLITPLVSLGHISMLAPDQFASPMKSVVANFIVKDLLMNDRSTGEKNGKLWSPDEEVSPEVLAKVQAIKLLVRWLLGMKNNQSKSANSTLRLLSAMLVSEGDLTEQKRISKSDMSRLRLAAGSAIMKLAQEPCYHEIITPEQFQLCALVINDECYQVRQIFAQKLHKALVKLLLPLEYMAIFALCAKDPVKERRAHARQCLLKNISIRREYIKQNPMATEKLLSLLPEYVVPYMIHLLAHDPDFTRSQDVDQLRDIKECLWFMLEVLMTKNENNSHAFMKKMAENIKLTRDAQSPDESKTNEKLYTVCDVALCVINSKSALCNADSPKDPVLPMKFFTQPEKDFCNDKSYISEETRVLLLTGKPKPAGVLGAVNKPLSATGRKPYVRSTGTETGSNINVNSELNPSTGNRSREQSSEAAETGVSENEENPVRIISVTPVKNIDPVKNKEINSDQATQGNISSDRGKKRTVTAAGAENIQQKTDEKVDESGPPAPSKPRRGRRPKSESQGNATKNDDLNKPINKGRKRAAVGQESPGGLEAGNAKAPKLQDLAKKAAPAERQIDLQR
Assay: pull-down; Flag-Pds5a or -b affinity-purified on anti-Flag beads from chromatin-free lysates of taxol-arrested Hek293T cells (expressed alone or with Nek2aΔMR and/or Δ86-cyclin A2); beads incubated with a mixture of recombinant Wapl (2 µl) and sororin (0.3 µg) in 15 µl cleavage buffer with kinase inhibitors, 20 min at 37 °C; bound and unbound fractions by immunoblotting
Conditions: both partners purified

B1: recombinant human Wapl (natural protein, UniProt Q7Z5K2 1-1190, looked up)
chain: MTSRFGKTYSRKGGNGSSKFDEVFSNKRTTLSTKWGETTFMAKLGQKRPNFKPDIQEIPKKPKVEEESTGDPFGFDSDDESLPVSSKNLAQVKCSSYSESSEAAQLEEVTSVLEANSKISHVVVEDTVVSDKCFPLEDTLLGKEKSTNRIVEDDASISSCNKLITSDKVENFHEEHEKNSHHIHKNADDSTKKPNAETTVASEIKETNDTWNSQFGKRPESPSEISPIKGSVRTGLFEWDNDFEDIRSEDCILSLDSDPLLEMKDDDFKNRLENLNEAIEEDIVQSVLRPTNCRTYCRANKTKSSQGASNFDKLMDGTSQALAKANSESSKDGLNQAKKGGVSCGTSFRGTVGRTRDYTVLHPSCLSVCNVTIQDTMERSMDEFTASTPADLGEAGRLRKKADIATSKTTTRFRPSNTKSKKDVKLEFFGFEDHETGGDEGGSGSSNYKIKYFGFDDLSESEDDEDDDCQVERKTSKKRTKTAPSPSLQPPPESNDNSQDSQSGTNNAENLDFTEDLPGVPESVKKPINKQGDKSKENTRKIFSGPKRSPTKAVYNARHWNHPDSEELPGPPVVKPQSVTVRLSSKEPNQKDDGVFKAPAPPSKVIKTVTIPTQPYQDIVTALKCRREDKELYTVVQHVKHFNDVVEFGENQEFTDDIEYLLSGLKSTQPLNTRCLSVISLATKCAMPSFRMHLRAHGMVAMVFKTLDDSQHHQNLSLCTAALMYILSRDRLNMDLDRASLDLMIRLLELEQDASSAKLLNEKDMNKIKEKIRRLCETVHNKHLDLENITTGHLAMETLLSLTSKRAGDWFKEELRLLGGLDHIVDKVKECVDHLSRDEDEEKLVASLWGAERCLRVLESVTVHNPENQSYLIAYKDSQLIVSSAKALQHCEELIQQYNRAEDSICLADSKPLPHQNVTNHVGKAVEDCMRAIIGVLLNLTNDNEWGSTKTGEQDGLIGTALNCVLQVPKYLPQEQRFDIRVLGLGLLINLVEYSARNRHCLVNMETSCSFDSSICSGEGDDSLRIGGQVHAVQALVQLFLERERAAQLAESKTDELIKDAPTTQHDKSGEWQETSGEIQWVSTEKTDGTEEKHKKEEEDEELDLNKALQHAGKHMEDCIVASYTALLLGCLCQESPINVTTVREYLPEGDFSIMTEMLKKFLSFMNLTCAVGTTGQKSISRVIEYLEHC
notes: Wapl, human; insert by PCR on human cDNA; Isolated from mitotically arrested cells; also called GFP-SUMOstar-Wapl; source: Hek293T, transiently transfected, taxol-arrested; not shown: GFP, N-terminal, cleaved; SUMOstar, N-terminal, cleaved
B1: binds.
